Reference: patent US20200317768A1 (published 2020)
Positions count from the first letter of the chain named.

What was measured:
[1] = target: T1, human FcγRIIIaV extracellular domain, C-terminal His-tag (human, UniProt P08637 17-208); experiment: SPR (BIACORE); KD of SG1 / KD of variant;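 note: relative to parent M103205H795-SG1 carrying the SG1 human heavy chain constant region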
T1 construct: also called FcgRIIIaV; not shown: His-tag added to C-terminus

[2] = target: T2, human FcγRIIaH extracellular domain, C-terminal His-tag (human, UniProt P12318 34-217); experiment: SPR (BIACORE); KD of SG1 / KD of variant;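 note: relative to parent M103205H795-SG1 carrying the SG1 human heavy chain constant region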
T2 construct: also called human FcγRIIa (type H); FcgRIIaH; not shown: His-tag added to C-terminus
T2 sequence: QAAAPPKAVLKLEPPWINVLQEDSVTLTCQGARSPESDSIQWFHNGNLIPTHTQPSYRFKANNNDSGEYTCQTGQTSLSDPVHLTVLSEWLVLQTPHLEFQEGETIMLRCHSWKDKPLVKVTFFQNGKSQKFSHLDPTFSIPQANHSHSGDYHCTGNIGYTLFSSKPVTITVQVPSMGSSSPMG

[3] = target: T3, human FcγRIIaR extracellular domain, C-terminal His-tag (human, UniProt P12318 34-217); experiment: SPR (BIACORE); KD of SG1 / KD of variant;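 note: relative to parent M103205H795-SG1 carrying the SG1 human heavy chain constant region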
T3 construct: also called human FcγRIIa (type R); FcgRIIaR; not shown: His-tag added to C-terminus
T3 chain: T2 sequence with H134R

[4] = target: T1, human FcγRIIIaV extracellular domain, …; experiment: SPR (BIACORE), antibody captured, FcγR analyte
[5] = target: T4, cynomolgus monkey FcγRIIb extracellular domain, C-terminal His-tag (cynomolgus monkey); experiment: SPR (BIACORE), antibody captured, FcγR analyte
T4 construct: also called cyno FcγRIIb; cynoFcγRIIb; not shown: His-tag added to C-terminus
T4 chain: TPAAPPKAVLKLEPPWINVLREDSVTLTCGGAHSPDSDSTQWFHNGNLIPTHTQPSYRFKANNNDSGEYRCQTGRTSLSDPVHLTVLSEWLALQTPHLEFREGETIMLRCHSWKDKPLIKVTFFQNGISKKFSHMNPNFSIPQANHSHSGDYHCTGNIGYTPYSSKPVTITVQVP

[6] = target: T2, human FcγRIIaH extracellular domain, …; experiment: SPR (BIACORE), antibody captured, FcγR analyte
[7] = target: T5, cynomolgus monkey FcγRIIIaS extracellular domain, C-terminal His-tag (cynomolgus monkey, UniProt A3RFZ7 21-206 (rhesus entry)); experiment: SPR (BIACORE), antibody captured, FcγR analyte
T5 construct: also called cyno FcγRIIIaS; cynoFcγRIIIaS; not shown: His-tag added to C-terminus
T5 sequence (A3RFZ7 21-206): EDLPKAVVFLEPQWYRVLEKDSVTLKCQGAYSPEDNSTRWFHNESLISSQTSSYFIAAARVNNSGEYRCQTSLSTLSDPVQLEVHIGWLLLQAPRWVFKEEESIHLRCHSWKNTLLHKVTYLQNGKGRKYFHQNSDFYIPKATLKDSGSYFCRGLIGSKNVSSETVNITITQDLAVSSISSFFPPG

[8] = target: T6, cynomolgus monkey FcγRIIa3 extracellular domain, C-terminal His-tag (cynomolgus monkey); experiment: SPR (BIACORE), antibody captured, FcγR analyte
T6 construct: also called cyno FcγRIIa3; cynoFcgRIIa3; not shown: His-tag added to C-terminus
T6 chain: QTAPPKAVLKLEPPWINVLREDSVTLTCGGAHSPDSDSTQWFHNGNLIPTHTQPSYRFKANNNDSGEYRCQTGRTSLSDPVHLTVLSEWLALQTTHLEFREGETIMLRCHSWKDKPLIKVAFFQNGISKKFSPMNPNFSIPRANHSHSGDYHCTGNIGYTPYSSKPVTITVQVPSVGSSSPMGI

[9] = target: T3, human FcγRIIaR extracellular domain, …; experiment: SPR (BIACORE), antibody captured, FcγR analyte
[10] = target: T7, cynomolgus monkey FcγRIIa2 extracellular domain, C-terminal His-tag (cynomolgus monkey); experiment: SPR (BIACORE), antibody captured, FcγR analyte
T7 construct: also called cyno FcγRIIa2; cynoFcgRIIa2; not shown: His-tag added to C-terminus
T7 chain: T6 chain with I127K, K130N, P133H, R142Q

T1 sequence (P08637 17-208 F176V): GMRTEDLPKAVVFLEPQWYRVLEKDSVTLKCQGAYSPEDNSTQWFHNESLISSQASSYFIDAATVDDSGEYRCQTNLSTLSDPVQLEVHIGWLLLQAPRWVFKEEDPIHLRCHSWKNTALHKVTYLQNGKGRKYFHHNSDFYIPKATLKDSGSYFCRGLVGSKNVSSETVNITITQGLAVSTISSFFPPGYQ

B1: MS_M103205H795-SG1/M103202L889-SK1 (antibody, human IgG1, kappa)
heavy: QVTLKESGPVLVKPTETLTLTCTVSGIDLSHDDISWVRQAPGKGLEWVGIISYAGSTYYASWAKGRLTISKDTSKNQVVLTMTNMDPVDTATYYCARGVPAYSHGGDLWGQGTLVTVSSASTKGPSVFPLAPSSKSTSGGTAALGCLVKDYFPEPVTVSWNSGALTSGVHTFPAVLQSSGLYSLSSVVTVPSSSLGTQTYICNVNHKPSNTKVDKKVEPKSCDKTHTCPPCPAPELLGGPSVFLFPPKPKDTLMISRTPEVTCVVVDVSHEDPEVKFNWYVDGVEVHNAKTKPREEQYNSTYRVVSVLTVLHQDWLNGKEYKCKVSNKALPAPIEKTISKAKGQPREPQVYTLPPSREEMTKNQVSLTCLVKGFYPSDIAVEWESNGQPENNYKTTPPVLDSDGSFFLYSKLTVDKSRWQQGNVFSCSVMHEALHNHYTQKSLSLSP
light: DIVMTQSPATLSLSPGERATLSCTSSQSVYHANWLSWFQQKPGQPPKLLIYWASTLAYGVPSRFSGSGSGTDFTLTISSLQPEDAATYYCAGGYGGGRYAFGQGTKVEIKRTVAAPSVFIFPPSDEQLKSGTASVVCLLNNFYPREAKVQWKVDNALQSGNSQESVTEQDSKDSTYSLSSTLTLSKADYEKHKVYACEVTHQGLSSPVTKSFNRGEC
notes: Parent antibody with SG1 human heavy chain constant region; also called MS1032LO06-SG1
[1]
  KD fold (SG1 = 1): 1 fold
[2]
  KD fold (SG1 = 1): 1 fold
[3]
  KD fold (SG1 = 1): 1 fold
[4]
  Kd: 620 nM
[5]
  Kd: 1900 nM
[6]
  Kd: 890 nM
[7]
  Kd: 280 nM
[8]
  Kd: 8600 nM
[9]
  Kd: 1000 nM
[10]
  Kd: 4700 nM
